Among the data in paper PMC5148173 are Kd and fold decrease in the binding affinity against wt N TAIL values, retold here.

In assay [1] the target is N-terminally hexahistidine tagged wt N_TAIL (C-terminal domain of the MeV nucleoprotein N, aa 401-525) (measles virus (Edmonston B)) (UniProt P04851). The experiment in a line: ITC. The following applies: domain or fragment.
Assay [2] has as its target N-terminally hexahistidine tagged N_TAIL R490S (measles virus (Edmonston B)) (UniProt P04851). The assay is described as follows: ITC; N_TAIL (25-180 uM) in the cell, XD (300-960 uM) in the microsyringe, 19 injections of 2 uL; 20 C; 10 mM Tris/HCl pH 8, 150 mM NaCl; single set of sites model. On the technique in general: In ITC the heat of successive injections is recorded.

For assay [3], the target named is N-terminally hexahistidine tagged N_TAIL R497G (measles virus (Edmonston B)) (UniProt P04851). The description is as above.
Assay [4] addresses N_TAIL S491L fused to a Gaussia luciferase fragment (glu-PCA) (measles virus) (UniProt P04851). The experiment in a line: split reporter (BiFC, NanoBiT); KD estimated from the glu-PCA luminescence with the empirically determined equation relating luminescence and the ITC KD values (Fig 4).

The substance “C-terminally hexahistidine tagged MeV XD (X domain of the phosphoprotein P, aa 459-507) (from UniProt P03422 459-507)” yielded a Kd in assay [1] of 3 µM.

Turning to “C-terminally hexahistidine tagged MeV XD (X domain of the phosphoprotein P, aa 459-507) (from UniProt P03422 459-507) (domain or fragment)”, in assay [2], the dissociation constant (Kd) was 20 µM and the fold decrease in the binding affinity against wt N TAIL was 7 fold. For the same substance, in assay [3], the Kd was found to be 44 µM.

As to “XD of the monomeric split-luciferase reassembly assay (glu-PCA) (from UniProt P03422 376-507) (domain or fragment)”, in assay [4], the Kd is 85 µM.

A word on the Kd: it is the equilibrium constant for the complex coming apart.
